Source: patent US10577406B2, “FKBP-L polypeptides and uses in angiogenesis-mediated disorders” (ALMAC DISCOVERY LIMITED, priority 2006, dated 2020)

System: migrating HMEC-1
Assay: immunohistochemical analysis of cytoskeletal morphology (anti-tubulin, anti-vimentin, confocal microscopy)
Assay type: cell-based, Human
Details: 750 ngml^−1; 5 hours after wounding
Experimental: Immunohistochemical analysis was carried out to assess cytoskeletal morphology upon treatment with FKBP-L by staining for tubulin and vimentin. HMEC-1 were seeded in four well chamber slides and incubtated overnight until confluent monolayers had formed. Media was removed from each well and the monolayer wounded as previously described. The cells were re-supplemented with medium containing 750 ngml^−1 recombinant His-tagged FKBP-L protein (i.e., SEQ ID NO: 1). The cells were incubated for 5 hours and the chambers were removed from the slides and the cells washed four times in PBS followed by fixation in 4% PBS buffered paraformaldehyde treated with 0.1% Triton X for 20 minutes. The cells were washed three times in PBS, and blocked for 20 minutes in 2% BSA containing 0.1% Triton X. Blocked cells were washed in PBS and incubated with one of the following monoclonal primary antibodies: (A) anti α tubulin (1:500); and (B) anti-vimentin (1:200), for 90 minutes. The cells were washed in PBS followed by a 1 hour incubation with FITC conjugated anti-mouse secondary (1:30) at room temperature. The cells were mounted with Vectashield containing propidium iodide and sealed to prevent dehydration. The slides were covered in tinfoil and stored at 4° C. for analysis using fluorescence confocal microscopy.

B1: full length recombinant FKBP-L: recombinant full length his-tagged FKBP-L protein (SEQ ID NO: 1) expressed in BL21 (DE3) (protein, listed as Homo sapiens)
chain: MRGSHHHHHHGMASMTGGQQMGRDLYDDDDKDRWGSMETPPVNTIGEKDTSQPQQEWEKNLRENLDSVIQIRQQPRDPPTETLELEVSPDPASQILEHTQGAEKLVAELEGDSHKSHGSTSQMPEALQASDLWYCPDGSFVKKIVIRGHGLDKPKLGSCCRVLALGFPFGSGPPEGWTELTMGVGPWREETWGELIEKCLESMCQGEEAELQLPGHTGPPVGLTLASFTQGRDSWELETSEKEALAREERARGTELFRAGNPEGAARCYGRALRLLLTLPPPGPPERTVLHANLAACQLLLGQPQLAAQSCDRVLEREPGHLKALYRRGVAQAALGNLEKATADLKKVLAIDPKNRAAQEELGKVVIQGKNQDAGLAQGLRKMFG
modifications: His tag
B1 was tested, and the “intermediate filament morphology (anti-vimentin staining)” value was “highly disorganized” and the “microtubule morphology (anti α tubulin staining)” value was “little alignment into the wound”.
